Biological target: human hemoglobin (human) (UniProt P69905)
Test: SPR

Sequence of UniProt P69905 (P69905 whole entry, chain 1 of 2): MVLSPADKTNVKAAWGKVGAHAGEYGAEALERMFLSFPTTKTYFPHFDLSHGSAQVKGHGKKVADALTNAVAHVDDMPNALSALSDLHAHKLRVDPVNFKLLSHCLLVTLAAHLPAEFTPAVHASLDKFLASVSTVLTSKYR
Sequence of UniProt P69905 (P68871 whole entry, chain 2 of 2, further chain): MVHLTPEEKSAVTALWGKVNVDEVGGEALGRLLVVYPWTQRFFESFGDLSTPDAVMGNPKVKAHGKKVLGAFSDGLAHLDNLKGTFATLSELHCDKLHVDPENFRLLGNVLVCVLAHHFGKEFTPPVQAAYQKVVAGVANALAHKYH

Work on “Spbhp-37 recombinant protein without the GST tag (natural protein)” yielded a Kd of 357 nM.

From PMC4854876
